Data on 2 molecules can be found in paper PMC12457681, “Hyperactive PLCG1 induces cell-autonomous and bystander T cell activation and drug resistance” (EMBO Reports, 2025).

For the assay, the target named is His6-ybbR-alpha-SMA, recombinant, assembled into filaments (human, UniProt P62736 1-377). The assay can be described thus: co-sedimentation; actin co-pelleting (spin-down) assay: 4 µM α-SMA pre-assembled into filaments (with Rhodamine muscle actin), 0.4 µM PLCG1 and 1 µM myosin in 50 mM HEPES pH 7.4, 150 mM NaCl, 1 mM TCEP, 2 h at room temperature; high-speed centrifugation; supernatant and pellet on SDS-PAGE. The conditions noted are these: both partners purified.

Residue numbers refer to the chain shown, from its start. Names and notes keep the numbering of the source.

B1: Rat PLCG1 (aa 21-1215) WT, recombinant (enzyme, UniProt P10686 21-1215, looked up)
chain: EVLHLCRSLEVGTVMTLFYSKKSQRPERKTFQVKLETRQITWSRGADKIEGSIDIREIKEIRPGKTSRDFDRYQEDPAFRPDQSHCFVILYGMEFRLKTLSLQATSEDEVNMWIKGLTWLMEDTLQAATPLQIERWLRKQFYSVDRNREDRISAKDLKNMLSQVNYRVPNMRFLRERLTDFEQRSGDITYGQFAQLYRSLMYSAQKTMDLPFLETNTLRTGERPELCQVSLSEFQQFLLEYQGELWAVDRLQVQEFMLSFLRDPLREIEEPYFFLDELVTFLFSKENSVWNSQLDAVCPETMNNPLSHYWISSSHNTYLTGDQFSSESSLEAYARCLRMGCRCIELDCWDGPDGMPVIYHGHTLTTKIKFSDVLHTIKEHAFVASEYPVILSIEDHCSIAQQRNMAQHFRKVLGDTLLTKPVDIAADGLPSPNQLKRKILIKHKKLAEGSAYEEVPTSVMYSENDISNSIKNGILYLEDPVNHEWYPHYFVLTSSKIYYSEETSSDQGNEDEEEPKEASGSTELHSSEKWFHGKLGAGRDGRHIAERLLTEYCIETGAPDGSFLVRESETFVGDYTLSFWRNGKVQHCRIHSRQDAGTPKFFLTDNLVFDSLYDLITHYQQVPLRCNEFEMRLSEPVPQTNAHESKEWYHASLTRAQAEHMLMRVPRDGAFLVRKRNEPNSYAISFRAEGKIKHCRVQQEGQTVMLGNSEFDSLVDLISYYEKHPLYRKMKLRYPINEEALEKIGTAEPDYGALYEGRNPGFYVEANPMPTFKCAVKALFDYKAQREDELTFTKSAIIQNVEKQDGGWWRGDYGGKKQLWFPSNYVEEMINPAILEPEREHLDENSPLGDLLRGVLDVPACQIAIRPEGKNNRLFVFSISMPSVAQWSLDVAADSQEELQDWVKKIREVAQTADARLTEGKMMERRKKIALELSELVVYCRPVPFDEEKIGTERACYRDMSSFPETKAEKYVNKAKGKKFLQYNRLQLSRIYPKGQRLDSSNYDPLPMWICGSQLVALNFQTPDKPMQMNQALFMAGGHCGYVLQPSTMRDEAFDPFDKSSLRGLEPCVICIEVLGARHLPKNGRGIVCPFVEIEVAGAEYDSTKQKTEFVVDNGLNPVWPAKPFHFQISNPEFAFLRFVVYEEDMFSDQNFLAQATFPVKGLKTGYRAVPLKNNYSEDLELASLLIKIDIFPAK
notes: Phospholipase C gamma 1, rat, aa 21-1215; PDB 6PBC (cited) is the structure of PLCG1 from that work; also called wild-type PLCG1; PLCG1 WT; source: expressed and purified as previous published protocol (Hajicek et al, 2019)
For B1, the binding result was “binds”.

B2: Rat PLCG1 (aa 21-1215) D1165H, recombinant (enzyme, UniProt P10686 21-1215, looked up)
chain: B1 chain with D1145H
notes: Phospholipase C gamma 1, rat, aa 21-1215, with the human leukemia/lymphoma-associated mutation D1165H; also called recombinant PLCG1 D1165H protein; source: expressed and purified as previous published protocol (Hajicek et al, 2019)
For B2, the binding result is “binds”.
